Data from publication PMC9333307.

Molecular target: Urtica dioica agglutinin (Urtica dioica (stinging nettle))
Assay: ELISA; microwells coated with serial dilutions (1:2 to 1:16) of UDA in PBS at 4°C overnight; blocked with 0.3% skim milk; 0.5 μg.mL recombinant RBD added for 1 h at RT; detected with rabbit anti-his antibodies and HRP-conjugated secondary antibody, TMB, absorbance at 450 nm; wells without UDA as negative control
Parameters: unit not given here

recombinant receptor-binding domain (RBD) of SARS-CoV-2 Spike protein (from UniProt P0DTC2 319-541) (domain or fragment)
absorbance at 450 nm: 420
